The test system of one data set is cancerous body cells. The settings on record: subsequently converted into protoporphyrin IX; cited from earlier work.
Data set [1] is described as follows: In vitro permeation through intact skin, patch of FIGS. 14 and 15 (Example 6). Type of data set: in vitro ADME, Hairless Guinea Pig. Here is the method: (§1) The wells were filled with porous plastic.
In addition to the transdermal patches using porous plastic depots as described in Example 5, patches containing fibrous depots were also tested. The fibrous depots, also measured 3 mm in length were cut from an aligned bonded cellulose acetate rod, 3 mm in diameter (R14236 from American Filtrona Co.).

Data set [2] can be described thus: In vitro skin permeation, patch of FIG. 2 (Example 1). Particulars: compromised skin, 37° C, contact area 0.21 cm^2, about 1 mg loaded, less than ideal intimate contact. The source says:
(§2) The skin penetration of model compounds from a transdermal patch constructed according to FIG. 2 was established in vitro by a permeation study. […] The array measured 1.7×1.7 cm and was centrally located. […] On this outer surface of the adhesive layer, but between the slightly protruding silicone tubing was cast a 30% solution of silicone sealant in hexane. The channels were filled with filaments of open cell polyurethane foam. On top of the dry silicone layer was placed a reservoir support layer consisting of a 1.5 mm thick sheet of the same open-cell polyurethane foam, 2.0 cm in diameter. The outer, barrier layer of the patch was a 3.5 cm diameter section of DERMAFLEX V-300-F FLESH (vinyl coated with a medical grade acrylic adhesive, FLEXCON Company). The reservoir and channels of the patch were loaded with a solution which contained a fluorescently labelled model compound (polypeptides or polysaccharide). […] The sections of modified skin (stratum corneum removed) were excised from the Hairless Guinea Pig and mounted on the diffusion cell above a solution of isotonic saline such that the dermal side of skin was in contact with the magnetically stirred receptor liquid. The device was brought into intimate contact with the epidermal surface of the skin. The effective contact area of the solution with the skin through the channels was 0.21 cm^2. […]

The nature of data set [3]: In vitro skin permeation, patch of FIG. 3 (Example 4). The settings on record: porous plastic depots. Type of data set: in vitro ADME, Hairless Guinea Pig. From the text: […] […] Duplicate samples of each test compound were run.
skin compatible adhesive, H-566 coated onto a white polyethylene closed cell foam, 0.8 mm thick (Dermaflex PEF 32-W H-566 from Flexcon Company, Inc.) was used, perforated with an array of 69 cylindrical channels approximately 0.84 mm in diameter;
the channels were not lined; instead they were filled with cylindrical sections of porous plastic material (Hydrophilic HDPE with medium pore size, NO. X-4899, Porex Technologies);
the silicone sealant was absent; a reservoir support layer consisting of 1.6 mm thick sheet of porous plastic material, 2.0 cm in diameter (Hydrophilic HDPE with coarse pore size, NO. X-4916, Porex Technologies) was placed directly above the array of 69 channels;
Some variability in results, as between attempted duplicates, was observed, largely attributable to uncertain intimate contact between the reservoir and the skin contacting matrices.

Data set [4] is described as follows: In vitro skin permeation, patch of FIGS. 14 and 15, liquid reservoir (Example 5). In kind it is in vitro ADME, Hairless Guinea Pig. Particulars: porous plastic depots, contact area 1.1 cm^2.
A short description of data set [5]: In vitro skin permeation, patch of FIGS. 14 and 15, dried drug matrix (Example 7). Particulars: freeze dried depots, porous plastic matrix. In kind it is in vitro ADME, Hairless Guinea Pig.
Source text: as §1
The drug depots were hydrated with a suitable solubilizing solution just before the start of the permeation study, as illustrated in FIG. 6.

For data set [6] the following is noted: in vivo; cited from earlier work.
A short description of data set [7]: In vitro skin permeation, patch of FIG. 2 with H566 adhesive (Example 2). Particulars: compromised skin, approximately 1 mg loaded, intimate contact maintained.
Source text: as §2

For data set [8] the following is noted: in the bloodstream; cited from earlier work.

Several values for one entry are separate records, joined by “and”; a condition that tells them apart may be missing. Equal values may be shown once.

Take `NCC(=O)CCC(=O)O` [5-aminolevulinic acid]: the “absorption by cancerous body cells” value in the data set on cancerous body cells is reported as “preferentially absorbed by cancerous body cells”.

For `C[C@]12CC[C@@H]3c4ccc(O)cc4CC[C@H]3[C@@H]1CC[C@@H]2O` [Estradiol, estradiol], the “Amount Permeated (Cumulative)” value was 0.19 Micrograms and 0.34 Micrograms in [1] (fibrous matrix, 8 hrs); 1.74 Micrograms and 2.93 Micrograms in data set [1] (fibrous matrix, 24 hrs); 2.99 Micrograms and 4.83 Micrograms in data set [1] (fibrous matrix, 48 hrs); 1.01 Micrograms and 1.03 Micrograms in [1] (porous plastic matrix, 8 hrs); 6.14 Micrograms and 6.87 Micrograms in data set [1] (porous plastic matrix, 24 hrs); 9.90 Micrograms and 10.69 Micrograms in [1] (porous plastic matrix, 48 hrs).

In the case of Casein, the “Amount Permeated in 20 Hrs.” value was 0.05 Micrograms and 0.03 Micrograms in data set [2]; 75.98 Micrograms and 104.98 Micrograms in data set [3].

For “Cytochrome C: carbon-14 labelled model compound, polypeptide, 12,300, from horse heart”, the “Amount Permeated (Cumulated)” value in data set [4] (4 hrs) was 117.8 micrograms and 103.4 micrograms; in [4] (8 hrs) it was 257.5 micrograms and 239.8 micrograms; in [4] (24 hrs) it was 581.6 micrograms and 572.6 micrograms; in data set [4] (48 hrs) it was 740.0 micrograms and 728.3 micrograms. The “Amount Permeated (Cumulative)” value in [5] (4 hrs) was 40.4 Micrograms; in data set [5] (8 hrs), 124.2 Micrograms and 119.9 Micrograms; in data set [5] (24 hrs), 412.6 Micrograms and 363.1 Micrograms; in data set [5] (48 hrs) it was 642.7 Micrograms and 560.6 Micrograms.

On to Hyaluronic acid [HA], for which the “accumulation in HA-depleted areas” value in data set [6] is “preferentially accumulates in these depleted areas”.

On to Insulin, for which the “Amount Permeated in 20 Hrs.” value is 0.04 Micrograms and 0.05 Micrograms in data set [2]; 10.85 Micrograms and 8.30 Micrograms in data set [7]; 41.96 Micrograms and 22.78 Micrograms in data set [3].

As for “human growth hormone: polypeptide drug, human growth hormone (22,000 daltons)”, the half-life entry in [8] was “less than 25 minutes”.

“parathyroid hormone: polypeptide drug, parathyroid hormone (9,500 daltons)”: in [8], the half-life entry is given as “less than 15 minutes”.

Values taken from patent US5462743A, “Substance transfer system for topical application” (Medipro Sciences Limited, priority 1993, dated 1995).
